From article PMC11429574, “Biophysical and Solution Structure Analysis of Critical Residues Involved in the Interaction between the PupB N-Terminal Signaling Domain and PupR C-Terminal Cell Surface Signaling Domain from Pseudomonas capeferrum” (Biomolecules, 2024)

T1: PupB N-terminal signaling domain H72D (Pseudomonas capeferrum), P38047
T1 chain: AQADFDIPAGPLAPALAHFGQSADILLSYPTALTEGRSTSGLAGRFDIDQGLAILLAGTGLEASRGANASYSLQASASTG

B1: PupB N-terminal signaling domain Q69K (domain or fragment, Pseudomonas capeferrum)
chain: AQADFDIPAGPLAPALAHFGKSAHILLSYPTALTEGRSTSGLAGRFDIDQGLAILLAGTGLEASRGANASYSLQASASTG
notes: PupB of Pseudomonas capeferrum, N-terminal signaling domain, 82 residues; also called PupB NTSD Q69K; Q79K (misprint in two places); source: pET41 GST-PupB NTSD plasmid
B2: MBP-PupR C-terminal cell surface signaling domain (domain or fragment, Pseudomonas capeferrum)
chain: QDWRADYHSRIGEQRRLTLADGTQVQLNTDSALNVAFDQQARRLRLVRGEMLITRPALADSRPLWVDTEHGRLESTLAQFNVRLHGQHTQATVYQGSVALQPALHAYPPILLGAGEQASFNQQGLLARQAVAAVAPAWSQGMLVAQGQPLAAFIEDLARYRRGHLACDPALAGLRVSGTFPLENTDKIIAAVAETLQLEVQHFTRYWVTLKPRMA
notes: PupR, inner membrane sigma regulator (anti-sigma factor) of Pseudomonas capeferrum; periplasmic C-terminal cell surface signaling domain; residues A240 to A300 are named as interface residues; A TEV site lies between MBP and the domain; the MBP fusion was used uncleaved in the ITC for solubility and stability; also called MBP-PupR CCSSD; PupR CCSSD; not shown: MBP, N-terminal, kept

Key:
Experiment in all cases: ITC; MBP-PupR CCSSD (140-230 µM) titrated into PupB NTSD mutants (20-70 µM); 15 °C; 25 mM HEPES pH 7.5, 400 mM LiCl, 10% glycerol; triplicate, global single-site analysis (NITPIC, SEDPHAT)
[1] = target: B2; conditions: both partners purified
[2] = target: B1; conditions: both partners purified
[3] = target: T1, PupB N-terminal signaling domain H72D …; conditions: remark: other sources report otherwise

Binder	Kd [1] [µM]	dH [2] [kcal/mol]	Kd [3] [µM]	dH [3] [kcal/mol]
B1	1.55			
B2		-14.5	27.7	-23
